This experiment addresses T1, extracellular domain of human IL23R (hIL23R ECD) (human, UniProt Q5VWK5 24-355).
T1 construct: The immunogen was an ECD-human IgG1 hinge-Fc fusion
T1 sequence: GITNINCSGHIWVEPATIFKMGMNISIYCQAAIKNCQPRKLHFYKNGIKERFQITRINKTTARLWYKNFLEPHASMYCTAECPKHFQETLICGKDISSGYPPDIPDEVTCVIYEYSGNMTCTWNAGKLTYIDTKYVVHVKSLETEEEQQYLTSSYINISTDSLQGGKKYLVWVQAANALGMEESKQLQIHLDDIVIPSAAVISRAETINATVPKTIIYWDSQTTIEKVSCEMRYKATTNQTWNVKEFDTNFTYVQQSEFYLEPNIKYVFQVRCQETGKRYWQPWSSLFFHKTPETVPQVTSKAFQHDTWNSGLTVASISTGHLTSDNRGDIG
The experiment in a line: periplasmic extract ELISA (PE-ELISA) of phage clones, colorimetric. A digest of the protocol: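 Camels were immunized in turn with fusion proteins joining the human or mouse receptor extracellular domain to a human IgG1 hinge and Fc, and their VHH domains were recovered. RNA from the blood was transcribed, and a VHH fragment of approximately 400 bp was cloned into a phagemid in E. coli, in frame with a his-tag. The resulting phage library was biopanned over multiple rounds against either the human or the mouse extracellular domain. Selective binding of single clones was read colorimetrically by periplasmic extract ELISA in 96-well plates.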

B1: hIL23R_VHH15 (VHH)
VHH: QVQLQESGGGSVQAGGSLRLSCAASPGTYTSRYMGWFRQAPGKEREGVATIWPAGGNTVYADSVKGRFTISQDGAKKTVYLQMNSLKPEDTAMYYCAAAKYGGTSLAPYTYNYWGQGTQVTVSS
notes: Phagemid clone with his-tag, periplasmic extract
For B1, the binding result is recorded as “binds”.

B2: hIL23R_VHH12 (VHH)
VHH: QVQLQESGGGSVQAGGSLRLSCAASGYTSSSRCMGWFRQAPGKEREGVARIYTPTRTTWYADSVKGRFTISQDNAKNTVYLEMASLKPEDTAKYFCAAGASCAVDLFSYWGQGTQVTVSS
notes: as for B1
For the molecule B2, the binding result was “binds”.

B3: hIL23R_VHH17 (VHH)
VHH: QVQLQESGGGSVQAGGSLRLSCTASGYTFSTMKYMGWFRQAPGKEREGVAAIWIAAGNTYYADSVKGRFTISQDNTKNTVYLQMNSLKPEDTALYYCAAARYGFVPSTWYLPERYNYWGQGTQVTVSS
notes: as for B1
Turning to B3, the binding result is given as “binds”.

B4: hIL23R_VHH19 (VHH)
VHH: QVQLQESGGGSVQAGGSLRLSCAASGYTSCSYDMSWYRQAPGKKREFVSAIHSDGTTSYADSMKGRFTISQDNAKNTVYLQMNSLKPEDTAMYYCKTDPNYSDHVCPPYWGRGTQVTVSS
notes: as for B1
As for B4, the binding result was “binds”.
